From paper PMC5730846

Experiments:
[1] = target: recombinant Hsp90α (human) (UniProt P07900)
[2] = target: Tsc1-D-His6 labeled with Texas Red maleimide (UniProt Q92574); assay: fluorescence polarisation; as a5, Hsp90α pre-incubated with 1 μM GB (ganetespib)
[3] = target: Tsc1-D-His6 labeled with Texas Red maleimide (UniProt Q92574); assay: fluorescence polarisation; fluorescence anisotropy; 1 μM Texas Red-labeled Tsc1-D, Hsp90α at the indicated concentrations; 50 mM Tris pH 7.2, 150 mM NaCl, 1 mM TCEP, 4 mM MgCl2; no nucleotide or drug; single-site fit

Sequence of Tsc1-D-His6 labeled with Texas Red maleimide (Q92574 998-1164): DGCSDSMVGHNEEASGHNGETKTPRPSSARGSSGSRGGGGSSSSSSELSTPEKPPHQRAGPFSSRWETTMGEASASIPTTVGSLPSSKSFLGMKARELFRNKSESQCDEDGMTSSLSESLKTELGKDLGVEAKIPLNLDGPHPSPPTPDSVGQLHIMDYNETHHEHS
Sequence of recombinant Aha1-FLAG (O95433 whole entry): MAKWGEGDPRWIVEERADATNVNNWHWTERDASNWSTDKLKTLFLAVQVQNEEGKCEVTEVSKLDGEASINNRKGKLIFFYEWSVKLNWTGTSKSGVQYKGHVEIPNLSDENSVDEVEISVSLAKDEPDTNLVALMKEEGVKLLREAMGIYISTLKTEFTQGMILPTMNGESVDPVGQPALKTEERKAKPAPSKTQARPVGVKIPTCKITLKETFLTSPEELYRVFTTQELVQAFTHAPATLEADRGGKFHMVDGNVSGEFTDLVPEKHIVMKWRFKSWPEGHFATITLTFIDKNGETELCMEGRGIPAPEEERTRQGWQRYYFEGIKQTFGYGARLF

Substance | Hsp90α ATPase activity in vitro after incubation with 1 μM Tsc1-D-His6 and addition of 1.3 μM Aha1-FLAG (percent of Hsp90α alone) [1] [%] | Kd [2] [nM] | Kd [3] [nM]
recombinant Aha1-FLAG (from UniProt O95433 1-338) (natural protein) | 100 |  | 
recombinant Hsp90α (from UniProt P07900 1-732) (natural protein) |  | > 5000 | 480
